This note sets out measurements from EP2468776.

In this assay the target is T1, Slit2-His (UniProt O94813).
T1 chain: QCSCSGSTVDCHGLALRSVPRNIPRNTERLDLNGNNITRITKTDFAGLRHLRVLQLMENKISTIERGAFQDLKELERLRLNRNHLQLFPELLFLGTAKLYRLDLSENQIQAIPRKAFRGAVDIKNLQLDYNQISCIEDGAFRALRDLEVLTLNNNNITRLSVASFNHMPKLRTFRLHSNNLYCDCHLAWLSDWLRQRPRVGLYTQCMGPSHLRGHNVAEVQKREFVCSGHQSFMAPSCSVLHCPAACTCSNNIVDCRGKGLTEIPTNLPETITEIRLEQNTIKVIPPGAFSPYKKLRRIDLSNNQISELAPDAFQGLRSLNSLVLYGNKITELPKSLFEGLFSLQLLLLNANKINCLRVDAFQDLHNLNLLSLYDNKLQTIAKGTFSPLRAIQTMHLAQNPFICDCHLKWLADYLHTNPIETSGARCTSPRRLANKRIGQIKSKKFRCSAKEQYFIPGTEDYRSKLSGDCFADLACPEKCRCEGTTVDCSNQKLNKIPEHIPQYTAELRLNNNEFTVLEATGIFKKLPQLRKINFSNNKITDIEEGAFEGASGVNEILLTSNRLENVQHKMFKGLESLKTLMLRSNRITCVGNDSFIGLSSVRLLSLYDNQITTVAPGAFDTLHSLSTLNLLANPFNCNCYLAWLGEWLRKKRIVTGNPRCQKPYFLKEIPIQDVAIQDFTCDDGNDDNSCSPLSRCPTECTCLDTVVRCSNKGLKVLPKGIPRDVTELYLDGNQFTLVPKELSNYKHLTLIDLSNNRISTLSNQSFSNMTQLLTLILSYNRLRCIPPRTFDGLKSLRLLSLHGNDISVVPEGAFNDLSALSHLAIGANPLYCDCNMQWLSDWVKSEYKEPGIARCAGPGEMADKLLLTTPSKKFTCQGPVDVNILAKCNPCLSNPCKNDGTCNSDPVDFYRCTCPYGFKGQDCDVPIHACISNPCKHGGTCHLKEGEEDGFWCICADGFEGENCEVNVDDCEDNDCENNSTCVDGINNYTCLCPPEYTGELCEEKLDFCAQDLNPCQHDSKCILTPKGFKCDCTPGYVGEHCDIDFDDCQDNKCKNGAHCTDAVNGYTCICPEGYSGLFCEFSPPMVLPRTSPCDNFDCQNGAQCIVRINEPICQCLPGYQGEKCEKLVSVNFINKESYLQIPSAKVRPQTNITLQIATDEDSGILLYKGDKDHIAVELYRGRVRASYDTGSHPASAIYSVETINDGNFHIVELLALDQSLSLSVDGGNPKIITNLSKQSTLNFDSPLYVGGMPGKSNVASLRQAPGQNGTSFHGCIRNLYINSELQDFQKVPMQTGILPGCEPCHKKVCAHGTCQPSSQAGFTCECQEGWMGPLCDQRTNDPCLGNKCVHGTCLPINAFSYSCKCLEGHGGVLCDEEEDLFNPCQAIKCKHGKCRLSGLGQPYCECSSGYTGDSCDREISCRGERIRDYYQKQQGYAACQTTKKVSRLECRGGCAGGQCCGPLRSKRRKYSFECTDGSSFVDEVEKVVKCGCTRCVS
The assay can be described thus: SPR.

B1: Robo4-Fc (protein)
chain: QDSPPQILVHPQDQLFQGPGPARMSCQASGQPPPTIRWLLNGQPLSMVPPDPHHLLPDGTLLLLQPPARGHAHDGQALSTDLGVYTCEASNRLGTAVSRGARLSVAVLREDFQIQPRDMVAVVGEQFTLECGPPWGHPEPTVSWWKDGKPLALQPGRHTVSGGSLLMARAEKSDEGTYMCVATNSAGHRESRAARVSIQEPQDYTEPVELLAVRIQLENVTLLNPDPAEGPKPRPAVWLSWKVSGPAAPAQSYTALFRTQTAPGGQGAPWAEELLAGWQSAELGGLHWGQDYEFKVRPSSGRARGPDSNVLLLRLPEKVPSAPPQEVTLKPGNGTVFVSWVPPPAENHNGIIRGYQVWSLGNTSLPPANWTVVGEQTQLEIATHMPGSYCVQVAAVTGAGAGEPSRPVCLLLEQAMERATQEPSEHGPWTLEQLRATLKRPEVIATCGVALWLLLLGTAVCIHRRRRARVHLGPGLYRYTSEDAILKHRMDHSDSQWLADTWRSTSGSRDLSSSSSLSSRLGADARDPLDCRRSLLSWDSRSPGVPLLPDTSTFYGSLIAELPSSTPARPSPQVPAVRRLPPQLAQLSSPCSSSDSLCSRRGLSSPRLSLAPAEAWKAKKKQELQHANSSPLLRGSHSLELRACELGNRGSKNLSQSPGAVPQALVAWRALGPKLLSSSNELVTRHLPPAPLFPHETPPTQSQQTQPPVAPQAPSSILLPAAPIPILSPCSPPSPQASSLSGPSPASSRLSSSSLSSLGEDQDSVLTPEEVALCLELSEGEETPRNSVSPMPRAPSPPTTYGYISVPTASEFTDMGRTGGGVGPKGGVLLCPPRPCLTPTPSEGSLANGWGSASEDNAASARASLVSSSDGSFLADAHFARALAVAVDSFGFGLEPREADCVFIDASSPPSPRDEIFLTPNLSLPLWEWRPDWLEDMEVSHTQRLGRGMPPWPPDSQISSQRSQLHCRMPKAGASPVDYS
As to B1, the binding result is given as “no binding”.
